# B1: HCMV protein kinase pUL97, Flag-tagged (pUL97-Flag), P16788 1-707 (natural protein)
# chain: MSSALRSRARSASLGTTTQGWDPPPLRRPSRARRRQWMREAAQAAAQAAVQAAQAAAAQVAQAHVDENEVVDLMADEAGGGVTTLTTLSSVSTTTVLGHATFSACVRSDVMRDGEKEDAASDKENLRRPVVPSTSSRGSAASGDGYHGLRCRETSAMWSFEYDRDGDVTSVRRALFTGGSDPSDSVSGVRGGRKRPLRPPLVSLARTPLCRRRVGGVDAVLEENDVELRAESQDSAVASGPGRIPQPLSGSSGEESATAVEADSTSHDDVHCTCSNDQIITTSIRGLTCDPRMFLRLTHPELCELSISYLLVYVPKEDDFCHKICYAVDMSDESYRLGQGSFGEVWPLDRYRVVKVARKHSETVLTVWMSGLIRTRAAGEQQQPPSLVGTGVHRGLLTATGCCLLHNVTVHRRFHTDMFHHDQWKLACIDSYRRAFCTLADAIKFLNHQCRVCHFDITPMNVLIDVNPHNPSEIVRAALCDYSLSEPYPDYNERCVAVFQETGTARRIPNCSHRLRECYHPAFRPMPLQKLLICDPHARFPVAGLRRYCMSELSALGNVLGFCLMRLLDRRGLDEVRMGTEALLFKHAGAACRALENGKLTHCSDACLLILAAQMSYGACLLGEHGAALVSHTLRFVEAKMSSCRVRAFRRFYHECSQTMLHEYVRKNVERLLATSDGLYLYNAFRRTTSIICEEDLDGDCRQLFPE
# B2: pUL97 stably expressed in transduced HFFs, P16788 1-707 (natural protein)
# chain: B1 chain
# Biological target: Cyclin B1 (human (endogenous in 293T and HFF)), P14635
# Sequence (P14635 whole entry): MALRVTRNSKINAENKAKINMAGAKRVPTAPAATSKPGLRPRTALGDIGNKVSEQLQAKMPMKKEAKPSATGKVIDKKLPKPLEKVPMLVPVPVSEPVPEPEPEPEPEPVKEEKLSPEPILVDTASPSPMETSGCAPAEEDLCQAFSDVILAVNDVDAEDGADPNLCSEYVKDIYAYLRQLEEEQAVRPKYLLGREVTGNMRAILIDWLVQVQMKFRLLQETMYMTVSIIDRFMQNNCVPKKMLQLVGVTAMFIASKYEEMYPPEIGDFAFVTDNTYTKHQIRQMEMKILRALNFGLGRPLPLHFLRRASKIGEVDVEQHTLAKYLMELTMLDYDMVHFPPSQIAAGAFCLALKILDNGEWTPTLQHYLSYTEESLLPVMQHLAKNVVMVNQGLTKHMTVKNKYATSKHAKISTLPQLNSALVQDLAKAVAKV
# Assay: co-IP
# Settings: remark: other sources report otherwise
row,Binder,pUL97 co-IP Western blot signal relative to cyclin B1
1,B1,100%
2,B2,100%
